In IntAct's records for PubMed 31515488:

B1: Sperm-associated microtubule inner protein 4 (Homo sapiens), Q8N865 (parent)
chain: MEVIHGRPYCCRELEGADILSNTFYSNELHNPLQTVTRPTASEDRYQELRESLQQCRLPWGAEREYGGIIPISLPEDHRPKYEPPRVMGKGHQHYGFGGETWPRKLPVEQFYYLTQNKKSDVYGNDSLIPKPPNSTVGEICLPYPIEHPYHTHICRGAMFPTFTSPEDLYTGIKARTQQPFPPTVPTKAYDSTVLKTRGNPYRYELIDIPMDSKKKALTWPGQGVYYDFPRGVEKNKPVFYPKPPKTFAPNTSLNSWDPICSAKEANIQRNLERSHWLTSYTHDFTGLGPMDPLELDDYHEKMVAELTRKIGFDPEPQEKFHPVFKPPRPLEGRIARLIQNRRSLEAIVQQRPRSCPDCTPRVLCNFHTFVPSSKEMVALSDNIPAGVTHKNQDIEEKIIEEQSLLSTYELPSCYPTKDLTSIYDIKPFPKITDTKKTEDLYWRQQSLKTQPTPYCKPDHWIHYENLKSPLRDQYNMCPDPVSLSKPSVLQNKQDTEAFTLEHFLSKPEEELFLNMENNEETRPVLGWIPRAGVTKPQTNLLELKNSFSKTGAQKRFHKSILEDHKDLRDNEHSGMKHQFYGHNSYYFYN
partner: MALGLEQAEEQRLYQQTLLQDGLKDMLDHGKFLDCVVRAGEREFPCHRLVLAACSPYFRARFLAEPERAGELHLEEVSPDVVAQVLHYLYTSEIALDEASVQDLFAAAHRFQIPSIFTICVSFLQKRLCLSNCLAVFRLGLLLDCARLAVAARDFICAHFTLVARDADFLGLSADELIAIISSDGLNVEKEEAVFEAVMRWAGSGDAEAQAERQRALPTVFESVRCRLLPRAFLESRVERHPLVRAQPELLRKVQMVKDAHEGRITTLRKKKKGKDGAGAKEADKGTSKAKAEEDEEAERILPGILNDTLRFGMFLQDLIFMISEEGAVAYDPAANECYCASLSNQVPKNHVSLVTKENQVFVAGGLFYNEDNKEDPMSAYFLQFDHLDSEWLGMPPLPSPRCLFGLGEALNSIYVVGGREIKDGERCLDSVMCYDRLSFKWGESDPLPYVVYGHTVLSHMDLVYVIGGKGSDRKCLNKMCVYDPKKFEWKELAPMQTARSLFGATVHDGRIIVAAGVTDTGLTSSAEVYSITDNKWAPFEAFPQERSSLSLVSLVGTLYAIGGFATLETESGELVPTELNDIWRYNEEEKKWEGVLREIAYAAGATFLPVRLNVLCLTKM
B2: Kinesin-associated protein 3 (Homo sapiens), Q92845 (parent)
chain: MQGEDARYLKRKVKGGNIDVHPSEKALIVHYEVEATILGEMGDPMLGERKECQKIIRLKSLNANTDITSLARKVVEECKLIHPSKLNEVEQLLYYLQNRRDSLSGKEKKEKSSKPKDPPPFEGMEIDEVANINDMDEYIELLYEDIPDKVRGSALILQLARNPDNLEELLLNETALGALARVLREDWKQSVELATNIIYIFFCFSSFSQFHGLITHYKIGALCMNIIDHELKRHELWQEELSKKKKAVDEDPENQTLRKDYEKTFKKYQGLVVKQEQLLRVALYLLLNLAEDTRTELKMRNKNIVHMLVKALDRDNFELLILVVSFLKKLSIFMENKNDMVEMDIVEKLVKMIPCEHEDLLNITLRLLLNLSFDTGLRNKMVQVGLLPKLTALLGNDNYKQIAMCVLYHISMDDRFKSMFAYTDCIPQLMKMLFECSDERIDLELISFCINLAANKRNVQLICEGNGLKMLMKRALKFKDPLLMKMIRNISQHDGPTKNLFIDYVGDLAAQISNDEEEEFVIECLGTLANLTIPDLDWELVLKEYKLVPYLKDKLKPGAAEDDLVLEVVIMIGTVSMDDSCAALLAKSGIIPALIELLNAQQEDDEFVCQIIYVFYQMVFHQATRDVIIKETQAPAYLIDLMHDKNNEIRKVCDNTLDIIAEYDEEWAKKIQSEKFRWHNSQWLEMVESRQMDESEQYLYGDDRIEPYIHEGDILERPDLFYNSDGLIASEGAISPDFFNDYHLQNGDVVGQHSFPGSLGMDGFGQPVGILGRPATAYGFRPDEPYYYGYGS
partner: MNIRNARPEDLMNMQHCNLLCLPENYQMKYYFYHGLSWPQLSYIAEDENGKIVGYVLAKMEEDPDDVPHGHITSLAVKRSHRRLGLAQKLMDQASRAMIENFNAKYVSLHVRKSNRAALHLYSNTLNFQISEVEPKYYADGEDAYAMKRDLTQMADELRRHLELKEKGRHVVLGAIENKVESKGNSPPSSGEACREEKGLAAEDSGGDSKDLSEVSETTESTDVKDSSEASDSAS
B3: Cysteine-rich secretory protein 2 (Homo sapiens), P16562 (parent)
chain: MALLPVLFLVTVLLPSLPAEGKDPAFTALLTTQLQVQREIVNKHNELRKAVSPPASNMLKMEWSREVTTNAQRWANKCTLQHSDPEDRKTSTRCGENLYMSSDPTSWSSAIQSWYDEILDFVYGVGPKSPNAVVGHYTQLVWYSTYQVGCGIAYCPNQDSLKYYYVCQYCPAGNNMNRKNTPYQQGTPCAGCPDDCDKGLCTNSCQYQDLLSNCDSLKNTAGCEHELLKEKCKATCLCENKIY
partner: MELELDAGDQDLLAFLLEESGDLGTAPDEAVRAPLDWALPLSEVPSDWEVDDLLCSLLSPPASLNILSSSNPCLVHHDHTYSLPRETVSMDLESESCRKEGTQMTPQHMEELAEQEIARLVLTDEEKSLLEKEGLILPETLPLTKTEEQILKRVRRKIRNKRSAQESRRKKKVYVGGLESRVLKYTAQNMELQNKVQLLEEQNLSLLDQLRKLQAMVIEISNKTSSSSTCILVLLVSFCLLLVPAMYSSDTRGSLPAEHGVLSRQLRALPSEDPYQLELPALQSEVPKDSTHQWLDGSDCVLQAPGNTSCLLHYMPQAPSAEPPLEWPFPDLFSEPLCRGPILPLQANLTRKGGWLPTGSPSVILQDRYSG
B4: Phosphatidylinositol-3-phosphate phosphatase MTMR7 (Homo sapiens), Q9Y216 (parent)
chain: MEHIRTPKVENVRLVDRVSPKKAALGTLYLTATHVIFVENSPDPRKETWILHSQISTIEKQATTATGCPLLIRCKNFQIIQLIIPQERDCHDVYISLIRLARPVKYEELYCFSFNPMLDKEEREQGWVLIDLSEEYTRMGLPNHYWQLSDVNRDYRVCDSYPTELYVPKSATAHIIVGSSKFRSRRRFPVLSYYYKDNHASICRSSQPLSGFSARCLEDEQMLQAIRKANPGSDFVYVVDTRPKLNAMANRAAGKGYENEDNYSNIKFQFIGIENIHVMRNSLQKMLEVCELKSPSMSDFLWGLENSGWLRHIKAIMDAGIFIAKAVSEEGASVLVHCSDGWDRTAQVCSVASLLLDPHYRTLKGFMVLIEKDWISFGHKFNHRYGNLDGDPKEISPVIDQFIECVWQLMEQFPCAFEFNERFLIHIQHHIYSCQFGNFLCNSQKERRELKIQERTYSLWAHLWKNRADYLNPLFRADHSQTQGTLHLPTTPCNFMYKFWSGMYNRFEKGMQPRQSVTDYLMAVKEETQQLEEELEALEERLEKIQKVQLNCTKVKSKQSEPSKHSGFSTSDNSIANTPQDYSGNMKSFPSRSPSQGDEDSALILTQDNLKSSDPDLSANSDQESGVEDLSCRSPSGGEHAPSEDSGKDRDSDEAVFLTA
partner: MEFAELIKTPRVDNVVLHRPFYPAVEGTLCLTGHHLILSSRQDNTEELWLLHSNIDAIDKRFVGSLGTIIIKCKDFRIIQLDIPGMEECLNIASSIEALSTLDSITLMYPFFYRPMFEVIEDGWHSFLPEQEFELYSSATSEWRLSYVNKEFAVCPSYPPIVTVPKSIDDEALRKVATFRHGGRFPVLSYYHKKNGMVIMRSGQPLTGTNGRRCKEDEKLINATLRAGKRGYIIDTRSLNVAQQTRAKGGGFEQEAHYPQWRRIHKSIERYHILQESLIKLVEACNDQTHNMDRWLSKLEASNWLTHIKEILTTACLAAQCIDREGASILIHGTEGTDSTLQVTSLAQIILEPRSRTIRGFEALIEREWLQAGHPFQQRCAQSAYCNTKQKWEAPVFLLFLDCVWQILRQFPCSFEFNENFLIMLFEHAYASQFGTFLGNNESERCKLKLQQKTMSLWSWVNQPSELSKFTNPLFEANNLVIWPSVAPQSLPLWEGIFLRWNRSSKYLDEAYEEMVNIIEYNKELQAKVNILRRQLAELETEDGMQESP
B5: Ribose-phosphate pyrophosphokinase 1 (Homo sapiens), P60891-1 (parent)
chain: MPNIKIFSGSSHQDLSQKIADRLGLELGKVVTKKFSNQETCVEIGESVRGEDVYIVQSGCGEINDNLMELLIMINACKIASASRVTAVIPCFPYARQDKKDKSRAPISAKLVANMLSVAGADHIITMDLHASQIQGFFDIPVDNLYAEPAVLKWIRENISEWRNCTIVSPDAGGAKRVTSIADRLNVDFALIHKERKKANEVDRMVLVGDVKDRVAILVDDMADTCGTICHAADKLLSAGATRVYAILTHGIFSGPAISRINNACFEAVVVTNTIPQEDKMKHCSKIQVIDISMILAEAIRRTHNGESVSYLFSHVPL
partner: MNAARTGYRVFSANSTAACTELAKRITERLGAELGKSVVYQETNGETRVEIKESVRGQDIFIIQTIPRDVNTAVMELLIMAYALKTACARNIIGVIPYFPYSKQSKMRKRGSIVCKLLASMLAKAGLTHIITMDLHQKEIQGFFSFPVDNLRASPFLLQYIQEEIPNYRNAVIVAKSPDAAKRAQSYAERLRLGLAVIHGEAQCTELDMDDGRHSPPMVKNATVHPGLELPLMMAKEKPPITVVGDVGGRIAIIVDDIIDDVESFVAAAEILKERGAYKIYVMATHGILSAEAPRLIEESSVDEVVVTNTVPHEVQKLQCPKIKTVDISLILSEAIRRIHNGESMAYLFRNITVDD
B6: Caspase recruitment domain-containing protein 9 (Homo sapiens), Q9H257 (parent)
chain: MSDYENDDECWSVLEGFRVTLTSVIDPSRITPYLRQCKVLNPDDEEQVLSDPNLVIRKRKVGVLLDILQRTGHKGYVAFLESLELYYPQLYKKVTGKEPARVFSMIIDASGESGLTQLLMTEVMKLQKKVQDLTALLSSKDDFIKELRVKDSLLRKHQERVQRLKEECEAGSRELKRCKEENYDLAMRLAHQSEEKGAALMRNRDLQLEIDQLKHSLMKAEDDCKVERKHTLKLRHAMEQRPSQELLWELQQEKALLQARVQELEASVQEGKLDRSSPYIQVLEEDWRQALRDHQEQANTIFSLRKDLRQGEARRLRCMEEKEMFELQCLALRKDSKMYKDRIEAILLQMEEVAIERDQAIATREELHAQHARGLQEKDALRKQVRELGEKADELQLQVFQCEAQLLAVEGRLRRQQLETLVLSSDLEDGSPRRSQELSLPQDLEDTQLSDKGCLAGGGSPKQPFAALHQEQVLRNPHDAGLSSGEPPEKERRRLKESFENYRRKRALRKMQKGWRQGEEDRENTTGSDNTDTEGS
partner: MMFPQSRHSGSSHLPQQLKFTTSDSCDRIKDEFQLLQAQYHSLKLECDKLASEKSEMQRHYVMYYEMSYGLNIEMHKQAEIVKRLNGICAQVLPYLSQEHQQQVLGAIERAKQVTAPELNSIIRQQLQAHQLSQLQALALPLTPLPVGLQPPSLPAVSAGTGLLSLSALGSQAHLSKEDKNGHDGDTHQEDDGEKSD

Variants of: B1
Settings: with klh40_human KLHL40, Q2TBA0

Variant	effect of a mutation on the interaction
A158T	with no effect
P238Q	with no effect
H300R	with no effect

Variants of: B2
Settings: with naa10_human NAA10, P41227

Variant	effect of a mutation on the interaction
E167K	with no effect
F434C	with no effect

Variants of: B3
Settings: with creb3_human CREB3, O43889

Variant	effect of a mutation on the interaction
C196R	with no effect

Variants of: B4
Settings: with mtmr9_human MTMR9, Q96QG7

Variant	effect of a mutation on the interaction
M522T	with no effect

Variants of: B5
Settings: with kpra_human PRPSAP1, Q14558

Variant	effect of a mutation on the interaction
D203H	with no effect

Variants of: B5
Settings: with kpra_human PRPSAP1, Q14558
Remark: another data set of the same source

Variant	effect of a mutation on the interaction
E43D	with no effect
D183H	with no effect

Variants of: B6
Settings: with tle5_human TLE5, Q08117

Variant	effect of a mutation on the interaction
R173H	with no effect
